In paper PMC2172667:

Key:
F-actin = F-actin (UniProt P68135); test: co-sedimentation
[1] = molecular target: GST-EPLIN-α (recombinant full-length EPLIN-α GST-fusion protein) (UniProt Q9UHB6); test: pull-down
Sequence of GST-EPLIN-α (recombinant full-length EPLIN-α GST-fusion protein) (Q9UHB6 161-759): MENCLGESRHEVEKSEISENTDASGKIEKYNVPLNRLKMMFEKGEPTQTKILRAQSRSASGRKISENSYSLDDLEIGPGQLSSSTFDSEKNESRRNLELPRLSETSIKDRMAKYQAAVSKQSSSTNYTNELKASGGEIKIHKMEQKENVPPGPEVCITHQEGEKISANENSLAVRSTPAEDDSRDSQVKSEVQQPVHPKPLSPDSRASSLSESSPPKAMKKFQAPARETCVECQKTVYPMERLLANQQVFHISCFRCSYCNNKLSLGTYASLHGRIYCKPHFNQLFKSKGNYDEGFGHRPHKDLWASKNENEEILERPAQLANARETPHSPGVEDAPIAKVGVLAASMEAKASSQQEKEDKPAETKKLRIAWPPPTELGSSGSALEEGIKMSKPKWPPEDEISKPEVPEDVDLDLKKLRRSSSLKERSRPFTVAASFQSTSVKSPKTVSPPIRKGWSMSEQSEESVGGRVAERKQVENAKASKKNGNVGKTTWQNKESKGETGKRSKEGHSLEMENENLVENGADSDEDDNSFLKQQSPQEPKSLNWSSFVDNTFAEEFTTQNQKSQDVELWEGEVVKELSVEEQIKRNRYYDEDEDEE

Sequence of his-EPLIN-α (Q9UHB6 161-759): as above

| Kd (F-actin) [nM] | stoichiometry N (actin molecules per his-EPLIN-α) (F-actin) | Substance | percent of actin monomers pelleted [1] [%] |
| --- | --- | --- | --- |
| 100 | 2 | his-EPLIN-α (from UniProt Q9UHB6-2 1-599) (natural protein) |  |
|  |  | G-actin (from UniProt P68135 1-377) (natural protein) | 10 |
